This note sets out measurements from the RNAGym collection of RNA variant scans (doi:10.7554/elife.80360).

B1: HDV Ribozyme (parent)
chain: GGCCGGCAUGGUCCCAGCCUCCUCGCUGGCGCCGGCUGGGCAACAUUCCGAGGGGACCGUCCCCUCGGUAAUGGCGAAUGGGACCCA

The variants in the series derive from B1. The series can be described thus: self-cleavage, relative activity (ratio to wild type); higher = more cleavage; co-transcriptional.
Turning to G76C C84U, the self-cleavage is 1.04.

For the variant C4G A77G, the self-cleavage stood at 0.172.

With U37G U72G, the self-cleavage was 0.115.

Take C4G U20A: the self-cleavage was found to be 0.0536.

As for A56G C75G, the self-cleavage came out at 0.175.

Take G10C C36U: the self-cleavage is 0.554.

In the case of U27A G54U, the self-cleavage is 0.845.

U23G A51U: the self-cleavage is 0.705.

As for C49G U72G, the self-cleavage is 0.604.

For C7U U46A, the self-cleavage was determined as 0.623.

Turning to G54U G73C, the self-cleavage is 0.297.

With U12C A16G, the self-cleavage stood at 0.

As for U37C C85U, the self-cleavage worked out at 1.01.

Take C14U G29A: the self-cleavage is 0.188.

In the case of G31U C63G, the self-cleavage was 0.483.

Regarding G38U G82U, the self-cleavage was found to be 0.129.

With G29C G35A, the self-cleavage amounted to 0.104.

C30U G82U: the self-cleavage came out at 0.252.

For the variant C4U C7G, the self-cleavage is 0.

On to U23G U47G, for which the self-cleavage is 0.731.

As to C14U A70U, the self-cleavage was determined as 1.08.

Take G5C A70U: the self-cleavage is 0.

As to C36G G59A, the self-cleavage amounted to 0.169.

As for U20G U79G, the self-cleavage worked out at 0.208.

Turning to C36U G52A, the self-cleavage is 0.785.

For the variant C36A U47G, the self-cleavage came out at 0.208.

With C49G A83C, the self-cleavage worked out at 0.403.

Regarding G17A U79C, the self-cleavage was determined as 0.514.

Turning to G40C C66U, the self-cleavage was found to be 0.249.

On to A16U G68C, for which the self-cleavage was determined as 1.03.

With C63G G68A, the self-cleavage turned out to be 0.366.

Regarding C62U C85A, the self-cleavage is 0.847.

For the variant U23G G52A, the self-cleavage was 0.554.

C24G U47A: the self-cleavage is 0.106.

In the case of U37A G53A, the self-cleavage was found to be 0.0594.

As for C13A A51C, the self-cleavage is 0.0898.

As for C14G C21U, the self-cleavage came to 0.113.

In the case of G34C G35A, the self-cleavage is 0.115.

As to G2U U72A, the self-cleavage worked out at 0.0287.

Consider C63U G68U, for which the self-cleavage was found to be 0.8.

As to G1A G35A, the self-cleavage worked out at 0.101.

Take C14A A56C: the self-cleavage worked out at 0.539.

Consider C15G C61U, for which the self-cleavage is 0.434.

In the case of C41A C61A, the self-cleavage worked out at 1.07.

On to C32G G50A, for which the self-cleavage was found to be 0.157.

In the case of G34C C63G, the self-cleavage was 0.0378.

Consider G31C G50A, for which the self-cleavage is 0.343.

For the variant G50U C58G, the self-cleavage came to 0.89.

In the case of C44G C49U, the self-cleavage is 0.617.

Regarding C32A G73U, the self-cleavage worked out at 0.0959.

For C61U G82C, the self-cleavage came out at 0.281.

On to U23A C85G, for which the self-cleavage is 0.942.

As to U27A G35U, the self-cleavage is 0.201.

For the variant G39U C86A, the self-cleavage came out at 0.796.

Turning to U46A C85G, the self-cleavage was 0.575.

Consider C30G C58U, for which the self-cleavage came out at 0.0906.

Regarding C13G A42G, the self-cleavage stood at 0.178.

With U60A C61A, the self-cleavage stood at 0.742.

Take C14A A70G: the self-cleavage was 0.665.

For the variant C64A G82A, the self-cleavage was determined as 0.282.

With C3U A83G, the self-cleavage came to 0.554.

Consider C57G C62U, for which the self-cleavage amounted to 1.03.

As to G5A A70G, the self-cleavage was found to be 0.0504.

In the case of G11U G55A, the self-cleavage was 0.463.

Regarding C18G A83G, the self-cleavage was 0.0707.

On to G2U G25A, for which the self-cleavage was determined as 0.0391.

Regarding G6U C61A, the self-cleavage worked out at 0.717.

In the case of C13G C64A, the self-cleavage was 0.0396.

Consider G10C A43C, for which the self-cleavage is 0.219.

For G52C U79C, the self-cleavage was found to be 0.582.

Turning to G6A A71G, the self-cleavage was 0.762.

With A8U G29U, the self-cleavage came to 0.0437.

As for G76A A83G, the self-cleavage was 0.992.

As for G6U C32A, the self-cleavage turned out to be 1.08.

Consider C7A C62G, for which the self-cleavage was determined as 0.0665.

As to U37C A51C, the self-cleavage came out at 0.966.

Take U20A A83C: the self-cleavage was determined as 0.

Consider G38A G67C, for which the self-cleavage worked out at 0.113.

C66U A77G: the self-cleavage stood at 0.489.

For the variant C24U C57A, the self-cleavage was 0.831.

For the variant C61U C75A, the self-cleavage was determined as 0.201.

On to C18G A42G, for which the self-cleavage was 0.115.

As to A78C A87G, the self-cleavage was found to be 0.127.

Consider C3A A78U, for which the self-cleavage was 0.0627.

In the case of G5U C33U, the self-cleavage came out at 0.615.

G52U G59C: the self-cleavage was 0.765.

In the case of C49G C75G, the self-cleavage is 0.299.

As for G29U U79G, the self-cleavage was found to be 0.0386.

Turning to C22G G53C, the self-cleavage stood at 0.

For the variant C36G C58U, the self-cleavage turned out to be 0.128.

As to C26A U60G, the self-cleavage came out at 1.2.

As to C18G G25A, the self-cleavage was 0.0504.

For U12C G74A, the self-cleavage is 0.0519.

In the case of C26U C48U, the self-cleavage stood at 1.01.

On to G39U C57G, for which the self-cleavage was 0.786.

On to G35A U60C, for which the self-cleavage is 0.554.

Take U9G G81C: the self-cleavage was determined as 0.443.

With C32U G81U, the self-cleavage came out at 0.185.

Take U12G G53U: the self-cleavage was 1.01.

Turning to C75G G76U, the self-cleavage worked out at 0.237.

As for A45U G59A, the self-cleavage came out at 1.

Consider A43G C64U, for which the self-cleavage amounted to 0.657.

Turning to G52U C84G, the self-cleavage is 0.573.

Take U46C A70U: the self-cleavage worked out at 0.957.

For the variant C18A U79A, the self-cleavage came out at 0.138.

For C3A G67U, the self-cleavage was determined as 0.71.

As for A56U A70U, the self-cleavage was 1.09.

A51G C64A: the self-cleavage worked out at 0.47.

With G5C G40A, the self-cleavage was 0.208.

On to C7G C21G, for which the self-cleavage amounted to 0.

For C15U U79G, the self-cleavage is 0.703.

Regarding U37G C58G, the self-cleavage was 0.369.

With C26G G81C, the self-cleavage was found to be 0.499.

In the case of A16U G76U, the self-cleavage stood at 1.05.

On to C7A G25U, for which the self-cleavage came out at 0.102.

For G29U G55A, the self-cleavage was 0.122.

Take C3U U46A: the self-cleavage stood at 0.628.

Take G35C G40C: the self-cleavage was found to be 0.185.

Consider C66G G80U, for which the self-cleavage worked out at 0.116.

In the case of G17U G28U, the self-cleavage turned out to be 0.0923.

C14G U20A: the self-cleavage came out at 0.

Regarding C7G G81A, the self-cleavage came out at 0.0594.

As to C21A G52C, the self-cleavage amounted to 0.125.

As for C14A G80U, the self-cleavage was 0.273.

Turning to G11C C75G, the self-cleavage stood at 0.133.

For the variant U46G U69A, the self-cleavage turned out to be 0.665.

For the variant C4A U37G, the self-cleavage turned out to be 0.

As for C7A G40C, the self-cleavage amounted to 0.102.

In the case of C36U U79G, the self-cleavage turned out to be 0.325.

For the variant G38A C41A, the self-cleavage is 0.185.

Consider G50A U72C, for which the self-cleavage stood at 0.45.

Regarding G50C U72G, the self-cleavage came to 0.415.

Turning to C13U C44G, the self-cleavage amounted to 0.332.

As to U69G C84U, the self-cleavage is 0.554.

On to C64U G68A, for which the self-cleavage was found to be 0.821.

Turning to U12G G59A, the self-cleavage is 0.929.

Regarding C14G C86A, the self-cleavage worked out at 1.03.

As for C19A G39U, the self-cleavage was found to be 0.0639.

For G25C C26U, the self-cleavage worked out at 0.

Consider C62U A77U, for which the self-cleavage is 0.429.

For the variant G34U G40A, the self-cleavage was 0.0542.

As to G2C G74C, the self-cleavage came to 0.0308.

For U23C G39U, the self-cleavage was 0.716.

G6C A8U: the self-cleavage was 0.346.

Regarding C15G C44U, the self-cleavage was 0.434.

Take U27G C44U: the self-cleavage was 0.688.

As to C3A A43U, the self-cleavage was 0.191.

Turning to C13U C84G, the self-cleavage turned out to be 0.969.

In the case of C18G A51U, the self-cleavage amounted to 0.0489.

For G59U C85G, the self-cleavage turned out to be 0.695.

Regarding C57U A78G, the self-cleavage was determined as 0.639.

U9A G82U: the self-cleavage was found to be 0.375.

Turning to C21G C30U, the self-cleavage was determined as 0.0308.

For G6C G39C, the self-cleavage turned out to be 0.293.

Turning to G5A A8G, the self-cleavage came to 0.0692.

On to G10C C61U, for which the self-cleavage was 0.578.

Consider G35C C57U, for which the self-cleavage was found to be 0.185.

Regarding C36U C62U, the self-cleavage was 0.911.

As to G2U G28U, the self-cleavage turned out to be 0.0246.

With C26G G40A, the self-cleavage worked out at 0.912.

On to G35U G50C, for which the self-cleavage amounted to 0.443.

For the variant C13G G55U, the self-cleavage is 0.0583.

Turning to C33G C48U, the self-cleavage amounted to 0.13.

With G34A C84U, the self-cleavage stood at 0.142.

With A16C G35U, the self-cleavage was 0.107.

Regarding A43U G59A, the self-cleavage was 0.633.

For G67A G68A, the self-cleavage stood at 0.946.
